Test results as given in publication PMC3737229, “Novel Dicarboxylate Selectivity in an Insect Glutamate Transporter Homolog” (PLoS ONE, 2013).

What was measured:
O=C(O)C[C@H](O)C(=O)O = system: T1, O=C(O)C[C@H](O)C(=O)O; assay: two-electrode voltage clamp, transport currents in oocytes; format: cell-based, Culex quinquefasciatus; settings: -60 mV, 96 mM NaCl Ringer, pH 7.5
T1 construct: synthetic gene, full length, in-frame C-terminal GFP (EGFP), pCDNA3.1; cRNA expressed in Xenopus laevis oocytes

N[C@@H](CCC(=O)O)C(=O)O = system: T2, N[C@@H](CCC(=O)O)C(=O)O; assay: as above; format: cell-based, Culex quinquefasciatus; settings: -60 mV, 96 mM NaCl Ringer, pH 7.5
T2 construct: synthetic gene, full length, in-frame C-terminal GFP (EGFP), pCDNA3.1; cRNA expressed in Xenopus laevis oocytes

CuqDCT = biological target: T3, CuqDCT (Culex quinquefasciatus, UniProt B0W0K5); assay: as above; format: cell-based; settings: -60 mV; 96 mM NaCl Ringer, pH 7.5
T3 construct: gene 6031434; synthetic gene, full length, in-frame C-terminal GFP (EGFP), pCDNA3.1; cRNA expressed in Xenopus laevis oocytes
T3 sequence (B0W0K5 1-483): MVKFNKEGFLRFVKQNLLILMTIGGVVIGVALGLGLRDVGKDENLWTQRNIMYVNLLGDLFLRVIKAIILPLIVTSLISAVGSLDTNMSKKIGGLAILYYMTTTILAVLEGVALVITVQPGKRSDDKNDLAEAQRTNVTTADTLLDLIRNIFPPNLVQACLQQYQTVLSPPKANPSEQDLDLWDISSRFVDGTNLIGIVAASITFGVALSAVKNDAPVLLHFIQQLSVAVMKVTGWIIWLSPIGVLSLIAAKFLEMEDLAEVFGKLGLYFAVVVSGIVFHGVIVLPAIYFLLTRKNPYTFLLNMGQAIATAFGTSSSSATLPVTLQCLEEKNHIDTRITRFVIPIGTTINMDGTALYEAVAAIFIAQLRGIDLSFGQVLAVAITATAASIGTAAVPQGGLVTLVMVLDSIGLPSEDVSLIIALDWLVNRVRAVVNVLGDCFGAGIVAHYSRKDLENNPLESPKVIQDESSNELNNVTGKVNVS

[1] = substrate: N[C@@H](CCC(=O)O)C(=O)O; assay: as above; format: cell-based, Culex quinquefasciatus; settings: -60 mV, 96 mM NaCl Ringer, pH 7.5
[2] = substrate: O=C(O)CCC(=O)C(=O)O; assay: as above; format: cell-based, Culex quinquefasciatus; settings: -60 mV, 96 mM NaCl Ringer, pH 7.5
[3] = substrate: O=C(O)C[C@H](O)C(=O)O; assay: cells, lysate or membranes; settings: -60 mV, 96 mM NaCl Ringer, pH 7.5

Molecule: CuqDCT (Culex quinquefasciatus; N428D)
- Km (O=C(O)C[C@H](O)C(=O)O): 8800 ± 1500 µM
- Km (N[C@@H](CCC(=O)O)C(=O)O): 13.8 ± 1.3 µM

Molecule: O=C(O)CCC(=O)O [succinate]
- Km (CuqDCT): 50.8 ± 2.3 µM

B1: CuqDCT (Culex quinquefasciatus) (protein)
chain: T3 sequence (B0W0K5 1-483)
notes: synthetic gene, full length, in-frame C-terminal GFP (EGFP), pCDNA3.1; cRNA expressed in Xenopus laevis oocytes
- Km [1]: 1085 ± 96 µM
- Km [2]: 20.2 ± 1.2 µM
- Km [3]: 10.5 ± 0.5 µM
